From the supplement of paper PMC9170038

Tested on: MS2 coat protein
Assay: apparent KD of MS2 coat protein; designed switch direction (-1 OFF switch, 1 ON switch): -1; higher = weaker reporter binding
How it was run: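 Designed RNA switches with common flanks were transcribed on Illumina chips by stalled E. coli RNA polymerase and titrated with SNAP-549-labelled MS2 coat protein, from 0.7 or 1.5 nM doubling to 3 µM, in Tris-HCl pH 7.5 buffer with KCl, MgCl2, BSA, DTT, tRNA and Tween-20. Steps lasted 0.8–1.5 h (lowest) to 10–20 min (highest). Titrations ran without input, with 200 uM small-molecule ligand, or with an oligonucleotide input. Normalised cluster fluorescence was curve-fitted, and apparent KD is the per-design median over clusters.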

[1] = Eterna round: R95, input ligand: FMN 200 uM
[2] = Eterna round: R95, input ligand: microRNA oligo, concentration not stated
[3] = Eterna round: R95, input ligand: none
[4] = input ligand: microRNA oligo, concentration not stated

| Sequence | apparent KD of MS2 coat protein [1] [µM] | apparent KD of MS2 coat protein [2] [µM] | apparent KD of MS2 coat protein [3] [µM] | apparent KD of MS2 coat protein (input ligand: FMN 200 uM) [µM] | apparent KD of MS2 coat protein [4] [µM] | apparent KD of MS2 coat protein (input ligand: none) [µM] |
| --- | --- | --- | --- | --- | --- | --- |
| CGCGACUCAGGAUAUACAUGAGGAUCACCCAUGUGGAACUACUGGGUCGAUAAAAGGUGUAGAAGGGAGGAAAU [Veveesla] (puzzle: Exclusion 3) | 0.0143 | 0.0105 | 0.0135 | – | – | – |
| CGGAACCAGACAGGAUAUACCUGUCCGAGACAGACACACAUGAGGAUCACCCAUGUUGAUGUCAGGUAGAAGGGUCAUAAAGAC [Eternabot solution 7] (Eterna round: R96, puzzle: Exclusion NG 2) | – | – | – | 0.00986 | 0.0103 | 0.0115 |
| CGGAGCAGAGGGAGAUCCAACAUGAGGAUCACCCAUGUCUCACAAGCUUUUUGCUCAUCUUAUUGUACCUUGGUGCU [JL ViennaUCT Edcesobi mod 6] (puzzle: Sensor v3, turn-off variant 1) | 0.0405 | 0.0101 | 0.0468 | – | – | – |
| CGGAUGUAAGGAUAUUAGUAGUAGUCAGAAUAGACUAUUACUGAGAAGGUACAUGAGGAUCACCCAUGUUUCCG [Eli x4 4.18] (Eterna round: R97, puzzle: Exclusion 4) | – | – | – | 0.0275 | – | 0.0168 |
| CGGAUGUGAGGAUAUACAUGAGGAUCACCCAUGUGUGCCAGCUAGCUGACUGGCACUUGUAGAAGGCACGUCUG [JL-ex3-2.14 Brourd mod] (puzzle: Exclusion 3) | – | 0.0111 | – | – | – | – |
| CGGCAAAGGUAGGAUAUGCUAGACGAGAGUCUAGCAGAAGGACCUACAUGAGGAUCACCCAUGUGUCCAAGCCG [Mat - Exclusion 6 - Eli Mod - D20] (Eterna round: R97, puzzle: Exclusion 6) | – | – | – | 0.032 | – | 0.0973 |
| CGGGCCGGCCUUCCGGCCGGCCCGACAUGAGGAUCACCCAUGUAGGAUAUCCCGGCUGCCGGCCGGGAGAAGGACAUGCGCCCG [-45.9, -45.9 kcal, 17% A] (Eterna round: R96, puzzle: Exclusion NG 3) | – | – | – | 0.104 | 0.0653 | 0.0493 |
| CGGUGCUGAGGAUAUACAUGAGGAUCACCCAUGUGUUCCAGCUAGCGUACUGGCGGAUGUAGAAGGCGGUACUG [JL-ex3-3.40 Brourd mod] (puzzle: Exclusion 3) | 0.0528 | 0.0131 | 0.0177 | – | – | – |
| CGGUGUAACACAGGAUAUCAUCGCAACUGACGUUGAGAAGGGUGACAUGAGGAUCACCCAUGUGAUUUCUCAAUAUUAUACAUC [Prohibition 83 - Jieux - Exclusion NG 1] (Eterna round: R96, puzzle: Exclusion NG 1) | – | – | – | 0.508 | 0.481 | 0.629 |
| CGGUGUAACAGAGGAUAUGAGCGCAACUGACGAUCAGAAGGCUGACAUGAGGAUCACCCAUGUGAUUUCUCAAUAUUAUACAUC [Prohibition 89 - Jieux - Exclusion NG 1] (Eterna round: R96, puzzle: Exclusion NG 1) | – | – | – | 0.0342 | 0.324 | 0.153 |
| CGGUGUAGAGGAUAUACGUGGAUGUAAGUUCAUGAUAUUUUACAUGAGGAUCACCCAUGUAGAAGGCUAUAGCG [JR_Ex2_Sub079] (Eterna round: R97, puzzle: Exclusion 2) | – | – | – | 0.0362 | – | 0.351 |
| CGUAAGCUAGGAUAUGCUUUGGGAAAGCAUUCCUUCGAUAAACUUGAGGAUCACCCAAGUAGAAGGAGCUUACG [salish99_ex2_r4_010] (Eterna round: R97, puzzle: Exclusion 2) | – | – | – | 0.0248 | – | 0.0168 |
| CGUAAGUGAGGAUAUCGUAGAGGAGACAUGAGGAUCACCCAUGUGUCAAGCGGUCCCGAAUGAGAAGGCACUGGUU [EX5 B.25] (Eterna round: R97, puzzle: Exclusion 5) | – | – | – | 0.0215 | – | 0.0203 |
| CGUAGACAUGAGGAUCACCCAUGUGAGGAUAUGCUUUUUUAUUAGAAAUGGUGGAGGAGCAGAAGGCACGUGCG [-21.6, -21.5 kcal, 28% A] (Eterna round: R97, puzzle: Exclusion 1) | – | – | – | 0.16 | – | 0.0597 |
| CGUAUGUAAGGAUAUUAGUAGUAGUCAGAAUAGACUAUUACUGAGAAGGUACAUGAGGAUCACCCAUGUUAGCG [Eli x4 4.15] (Eterna round: R97, puzzle: Exclusion 4) | – | – | – | 0.229 | – | 0.0316 |
| CGUCAACAUGAGGAUCACCCAUGUUAGGAUAUAGAGCCAGGGCACGACGCUAACCAGUCUAGAAGGGACGUGGG [Eternabot (Original) Solution 5] (Eterna round: R97, puzzle: Exclusion 1) | – | – | – | 0.0459 | – | 0.0371 |
| CGUCAGUGAGGAUAUGGUAACAUUUACAUGAGGAUCACCCAUGUUUCUUGGGACUAAAUACUAGAAGGCACUGACG [JR_Ex5_Sub032] (Eterna round: R97, puzzle: Exclusion 5) | – | – | – | 0.0231 | – | 0.015 |
| CGUCUGUAAGGAUAUGGUAGCGUUUACAUGAGGAUCACCCAUGUUACAUGGGACUAGAGACUAGAAGGUACGAACG [EX5 #51] (Eterna round: R97, puzzle: Exclusion 5) | – | – | – | 0.589 | – | 2.52 |
| CGUCUGUAAGGAUAUGGUUGCAUCAACAUGAGGAUCACCCAUGUUACAUGGGACUAGUGAUUAGAAGGUACGAACG [EX5 #57] (Eterna round: R97, puzzle: Exclusion 5) | – | – | – | 0.0583 | – | 0.0542 |
| CGUGCGUAUGUGAGGAUAUGCUGGUCCUUGGAUCGGCAGAAGGCACAUGAGGAUCACCCAUGUGGUGUCGUACG [salish99_Bmod_ex4_080] (puzzle: Brourd's mod of Exclusion 4) | – | 0.374 | – | – | – | – |
| CGUGUGUAAGGAUAUUUUGCAAGGCGGUGGACCCGCCUAUUAGAGAAGGUACAUGAGGAUCACCCAUGUGAGCC [Eternabot (L2) Solution 74] (Eterna round: R97, puzzle: Exclusion 4) | – | – | – | 0.0582 | – | 0.0423 |
| CGUUAGUGAGGAUAUGGAAAUAGGUACAUGAGGAUCACCCAUGUUUGAAGGGAAAAGAGCCUAGAAGGCACUAACG [JR_Ex5_Sub055] (Eterna round: R97, puzzle: Exclusion 5) | – | – | – | 0.0235 | – | 0.0352 |
| CUAAUACAUCAGGAUAUGUGUCAUUAUAGCGACACAGAAGGGAUGACAUGAGGAUCACCCAUGUCAAAGGGUGA [eternacac ex6r4 sub22] (Eterna round: R97, puzzle: Exclusion 6) | – | – | – | 0.0854 | – | 0.639 |
